From the supplement of paper PMC9732359
± gives the uncertainty stated by the source.

Experiment: protein stability index of a GFP-peptide fusion (yeast GPS) (PSI 1-4); higher = more stable; sorted into four equal gates, so the index is relative within each strain
How it was run: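 Tiled yeast protein peptides of 17 residues were each joined downstream of GFP, on plasmids that also express Cherry. The pooled library was maintained in yeast, and mid-log cultures in leucine-free medium were sorted into four equal gates on the GFP/Cherry ratio. Plasmids from every gate were amplified by PCR and sequenced on Illumina, with barcodes linking reads to strains. The protein stability index of a peptide is its gate-number-weighted read frequency summed over the gates.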

Sequence | protein stability index (doa10∆) | protein stability index (pdr5∆) | protein stability index (san1∆) | protein stability index (ubr1∆)
EGNVPQTLAPVPYETFI [RPL21A] | 3.06 ± 0.066 | 2.74 ± 0.056 | 3.08 ± 0.052 | 2.78 ± 0.056
FHIDHTKPSDLTIKDIV [RPO21] | 2.71 ± 0.048 | 2.66 ± 0.06 | 2.56 ± 0.059 | 2.8 ± 0.035
KVENLDYMYENGKLTSA [YML031W/NDC1] | 3.59 ± 0.25 | 3.3 ± 0.12 | 3.04 ± 0.12 | 
VTVDQYVNVAISIYNML [SSN2] | 1.72 ± 0.057 | 1.88 ± 0.062 | 1.52 ± 0.12 | 1.44 ± 0.052
SSGAGTVKLYLPEILNV [ECM29] | 1.45 ± 0.065 | 1.72 ± 0.055 | 2.02 ± 0.075 | 1.47 ± 0.066
DSLENNEGVPSPMLSIS [FAS1] | 3.08 ± 0.077 | 2.56 ± 0.062 | 2.4 ± 0.1 | 3.29 ± 0.094
PTAKDVEVIKQLSLDAS [GAL11] | 3.08 ± 0.13 | 2 ± 0.07 | 1.82 ± 0.1 | 2.28 ± 0.073
FSNKYLELCKLASNNLE [RRI2] | 1.95 ± 0.054 | 2.1 ± 0.039 | 2.02 ± 0.068 | 2.02 ± 0.043
SDEAIIPVNKRRGAHGS [SIR3] | 3.03 ± 0.15 | 3.13 ± 0.13 | 3.04 ± 0.13 | 2.93 ± 0.18
VVVDTVECAQHCIDYLR [SMC4] | 3.06 ± 0.11 | 2.79 ± 0.22 | 3.26 ± 0.074 | 3.01 ± 0.1
MDTIQDKLINDVTAIQT [ECM29] | 3.22 ± 0.083 | 3.23 ± 0.1 | 3.2 ± 0.085 | 3.34 ± 0.055
GFVIQDRETALDFIGRR [RPB2] | 3.02 ± 0.075 | 2.92 ± 0.13 | 3.34 ± 0.077 | 3 ± 0.11
FFDPKPFDQNLDSNNNN [SWI1] | 2.98 ± 0.085 | 2.83 ± 0.092 | 3.14 ± 0.048 | 2.88 ± 0.069
IEATDLGNIASSFYINH [BRR2] | 3 ± 0.085 | 3.04 ± 0.1 | 3.12 ± 0.078 | 3.3 ± 0.072
QARDNSQVFGVARIYAS [RPS14A] | 1.9 ± 0.066 | 2.12 ± 0.057 | 1.84 ± 0.087 | 2.23 ± 0.045
NQLDGFDDRGDVKVIMA [RPT2] | 3.47 ± 0.17 | 3.44 ± 0.27 | 3.09 ± 0.1 | 3.52 ± 0.17
KEPKKLLPNSKNVENTK [DSN1] | 3.12 ± 0.17 | 2.74 ± 0.15 | 2.59 ± 0.14 | 3.21 ± 0.083
ILVGGTLKDYQIKGLQW [SNF2] | 2.99 ± 0.076 | 2.83 ± 0.077 | 3.01 ± 0.056 | 3.16 ± 0.047
IAFLVGLVNPKTVQSMT [SWI3] | 2.46 ± 0.068 | 2.02 ± 0.059 | 2.11 ± 0.07 | 2.56 ± 0.041
EIGPSPTLAGMAQRTLK [FAS2] | 2.392 ± 0.02 | 2.559 ± 0.021 | 2.546 ± 0.021 | 2.45 ± 0.015
NYSSLPSPYKTTVYRYS [YAR002W/NUP60] | 2.04 ± 0.045 | 2.27 ± 0.038 | 1.71 ± 0.057 | 1.91 ± 0.034
LALSGTSASNTSMNGVH [SNF5] | 2.48 ± 0.073 | 2.73 ± 0.16 |  | 3.05 ± 0.14
EFLYPHLNFPNVKFLRI [SNF12] | 2.21 ± 0.19 | 2.67 ± 0.27 |  | 3.15 ± 0.1
KAEYVDQYDAERDFYHS [RPO31] | 2.75 ± 0.061 | 2.97 ± 0.1 | 3.23 ± 0.097 | 3.16 ± 0.06
YRAFGSIWQVKDQLPDL [MED7] | 3.08 ± 0.13 | 3.17 ± 0.086 | 2.94 ± 0.09 | 3.29 ± 0.083
ESKDLLRASFNKLSSIL [SRB4] | 1.08 ± 0.097 | 1.33 ± 0.074 | 1.22 ± 0.16 | 1.1 ± 0.094

Sequence | protein stability index (doa10∆) | protein stability index (pdr5∆) | protein stability index (san1∆) | protein stability index (ubr1∆)
KEEGLQQFNLHEILSEP [MED1] | 2.97 ± 0.15 | 3.21 ± 0.15 | 3.12 ± 0.12 | 2.62 ± 0.12
RSLCEVLVYDDKLEKVT [RPC34] | 2.32 ± 0.09 | 2.62 ± 0.1 | 2.33 ± 0.1 | 2.84 ± 0.093
KEDAKATMENIQKGKFT [SRP54] | 3.07 ± 0.055 | 3.29 ± 0.057 | 3.09 ± 0.062 | 3.08 ± 0.051
YFAKLREYLEEYKSLFV [RPP0] | 2.46 ± 0.19 | 2.65 ± 0.15 | 2.98 ± 0.073 | 3.24 ± 0.095
VGSEKVLQDLRLGSKKL [YJL039C/NUP192] | 3.34 ± 0.13 |  | 3.38 ± 0.13 | 
EVHDLIGFITSGTYHLN [POP1] | 2.69 ± 0.15 | 2.64 ± 0.14 | 2.11 ± 0.13 | 2.48 ± 0.11
ELAVENPLAKTMADAVR [SEC65] | 3 ± 0.048 | 2.94 ± 0.039 | 2.5 ± 0.047 | 1.77 ± 0.026
IYLSQNELTDAIALAVR [RPN1] | 2.58 ± 0.045 | 2.67 ± 0.052 | 2.88 ± 0.039 | 2.59 ± 0.032
VTLYWNNAKLLTFMTCN [ESC2] | 1.89 ± 0.041 | 2.09 ± 0.041 | 2.34 ± 0.045 | 2.57 ± 0.029
RLGSFTRAKAKVEEMNN [RPL36A] |  | 2.61 ± 0.2 | 2.85 ± 0.19 | 2.87 ± 0.28
ALEEGLNEEAVIFLSSL [YJL039C/NUP192] | 3.28 ± 0.1 | 3.05 ± 0.062 | 3 ± 0.07 | 2.99 ± 0.065
TQQSHEQQPEQPQETEE [RPT4] | 2.9 ± 0.056 | 3.16 ± 0.058 | 2.99 ± 0.056 | 2.98 ± 0.047
VLYHTSGAITFVNETPR [PRP8] | 2.06 ± 0.06 | 2.24 ± 0.075 | 2.43 ± 0.068 | 1.53 ± 0.04
VKEMEPKQSDEYLKRVS [SIR3] | 2.69 ± 0.056 | 2.74 ± 0.057 | 3.05 ± 0.05 | 2.54 ± 0.076
DMNSNLQVLKRERDGIK [SMC1] | 3.01 ± 0.093 | 2.92 ± 0.065 | 3.03 ± 0.047 | 2.78 ± 0.078
IEQGIPKHSYLSGNPLT [SIR4] | 2.86 ± 0.07 | 2.88 ± 0.076 | 3.13 ± 0.17 | 2.96 ± 0.061
LCMDSSYIGTIIVKDKS [POP1] | 1.2 ± 0.091 | 1.49 ± 0.048 | 1.13 ± 0.11 | 1.28 ± 0.089
LKIFLYLESLFAKQVDV [IRR1] | 2.51 ± 0.093 | 2.19 ± 0.073 | 2.33 ± 0.1 | 2.53 ± 0.049
CPLSQQFCGIKERNSLK [BRR2] | 2.88 ± 0.16 | 3.14 ± 0.1 | 2.71 ± 0.094 | 3.08 ± 0.076
TKMDGHARGGGAISAVA [SRP54] |  |  | 3.51 ± 0.14 | 3.62 ± 0.26
HCEDKDYKTAFSYFFES [RPN6] | 2.77 ± 0.081 | 2.83 ± 0.071 | 2.53 ± 0.076 | 3.02 ± 0.055
SSYMGKHWTEKSLHEMN [PRP28] | 3.23 ± 0.14 | 3.14 ± 0.23 | 3.07 ± 0.19 | 
ANTPVLRKSELEYYAML [RPL30] | 2.57 ± 0.096 | 2.99 ± 0.093 | 2.23 ± 0.095 | 2.81 ± 0.076
NPSNTPDKDYLLSIPIS [FAS1] | 2.89 ± 0.078 | 3.1 ± 0.079 | 2.88 ± 0.054 | 2.82 ± 0.066
NNNSNNIMSASGGLFGN [YGL172W/NUP49] | 2.97 ± 0.041 | 3.02 ± 0.041 | 3.13 ± 0.051 | 3.2 ± 0.035
AENLLQLKTGLAAIVST [YGL172W/NUP49] |  | 3.3 ± 0.19 | 2.99 ± 0.087 | 2.5 ± 0.2
